In assay [1] the target is T1, FZD5 cysteine-rich domain (CRD), MYC-tagged and GPI-anchored on CHO cells (human, UniProt Q13467 29-156, GPI anchor).
T1 construct: also called FZD5 CRD; CHO-myc-FZDGPI; not shown: MYC tag and GPI anchor signal
T1 sequence: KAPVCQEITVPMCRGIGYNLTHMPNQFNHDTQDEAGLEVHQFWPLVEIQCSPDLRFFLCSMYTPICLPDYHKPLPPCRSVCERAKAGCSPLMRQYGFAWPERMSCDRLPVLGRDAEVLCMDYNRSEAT
The assay is described as follows: flow cytometry, CHO-CRD cells.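 Further: flow cytometry of Fab binding to CHO cells overexpressing a Frizzled CRD, with binding defined as median fluorescence over twice that of CHO cells lacking any Frizzled CRD.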 On the technique in general: A flow cytometer gives signals particle by particle.

For assay [2], the target named is T2, FZD9 cysteine-rich domain (CRD), MYC-tagged and GPI-anchored on CHO cells (human, UniProt O00144 35-161, GPI anchor).
T2 construct: also called FZD9 CRD; CHO-myc-FZDGPI; not shown: MYC tag and GPI anchor signal
T2 sequence: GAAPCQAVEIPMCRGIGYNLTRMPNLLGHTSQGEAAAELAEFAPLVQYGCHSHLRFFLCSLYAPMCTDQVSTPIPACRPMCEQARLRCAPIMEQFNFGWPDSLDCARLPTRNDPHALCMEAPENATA
Briefly: flow cytometry, CHO-CRD cells.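 Further: flow cytometry of Fab binding to CHO cells overexpressing a Frizzled CRD, with binding defined as median fluorescence over twice that of CHO cells lacking any Frizzled CRD.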

The target of assay [3] is T3, FZD3 cysteine-rich domain (CRD), MYC-tagged and GPI-anchored on CHO cells (human, UniProt Q9NPG1 24-150, GPI anchor).
T3 construct: domain: cysteine-rich domain (CRD); also called FZD3 CRD; CHO-myc-FZDGPI; not shown: MYC tag and GPI anchor signal
T3 sequence (looked up): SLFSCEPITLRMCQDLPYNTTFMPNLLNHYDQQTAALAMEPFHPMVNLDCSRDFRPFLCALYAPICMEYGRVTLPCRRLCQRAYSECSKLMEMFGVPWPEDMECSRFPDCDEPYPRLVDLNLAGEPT
The assay is described as follows: flow cytometry, CHO-CRD cells.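 Further: flow cytometry of Fab binding to CHO cells overexpressing a Frizzled CRD, with binding defined as median fluorescence over twice that of CHO cells lacking any Frizzled CRD.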

The target in assay [4] is T4, FZD6 cysteine-rich domain (CRD), MYC-tagged and GPI-anchored on CHO cells (human, UniProt O60353 20-146, GPI anchor).
T4 construct: also called FZD6 CRD; CHO-myc-FZDGPI; not shown: MYC tag and GPI anchor signal
T4 sequence: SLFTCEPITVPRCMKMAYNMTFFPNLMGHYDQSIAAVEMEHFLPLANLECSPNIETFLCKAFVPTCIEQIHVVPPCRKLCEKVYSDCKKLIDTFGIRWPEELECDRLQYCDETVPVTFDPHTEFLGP
Briefly: flow cytometry, CHO-CRD cells.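 Further: flow cytometry of Fab binding to CHO cells overexpressing a Frizzled CRD, with binding defined as median fluorescence over twice that of CHO cells lacking any Frizzled CRD.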

For assay [5], the target named is T5, FZD10 cysteine-rich domain (CRD), MYC-tagged and GPI-anchored on CHO cells (human, UniProt Q9ULW2 30-156, GPI anchor).
T5 construct: also called FZD10 CRD; CHO-myc-FZDGPI; not shown: MYC tag and GPI anchor signal
T5 sequence: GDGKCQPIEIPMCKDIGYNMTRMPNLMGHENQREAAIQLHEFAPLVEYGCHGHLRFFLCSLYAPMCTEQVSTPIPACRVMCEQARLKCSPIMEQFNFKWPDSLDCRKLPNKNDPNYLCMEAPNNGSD
The assay is described as follows: flow cytometry, CHO-CRD cells.

Assay [6] has as its target T6, FZD4 cysteine-rich domain (CRD), MYC-tagged and GPI-anchored on CHO cells (human, UniProt Q9ULV1 42-167, GPI anchor).
T6 construct: also called FZD4 CRD; CHO-myc-FZDGPI; not shown: MYC tag and GPI anchor signal
T6 sequence: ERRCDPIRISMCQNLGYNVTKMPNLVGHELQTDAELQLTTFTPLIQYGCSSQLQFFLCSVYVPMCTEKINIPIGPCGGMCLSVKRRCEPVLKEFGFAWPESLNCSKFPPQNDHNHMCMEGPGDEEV
Briefly: flow cytometry, CHO-CRD cells.

Assay [7] has as its target T7, FZD2 cysteine-rich domain (CRD), MYC-tagged and GPI-anchored on CHO cells (human, UniProt Q14332 35-161). The assay is described as follows: flow cytometry, CHO-CRD cells.
Assay [8] deals with T8, FZD1 cysteine-rich domain (CRD), MYC-tagged and GPI-anchored on CHO cells (human). The assay is described as follows: flow cytometry, CHO-CRD cells.
Assay [9] addresses T9, FZD8 cysteine-rich domain (CRD), MYC-tagged and GPI-anchored on CHO cells (human, UniProt Q498S8 31-155 (rat entry), GPI anchor).
T9 construct: also called FZD8 CRD; CHO-myc-FZDGPI; not shown: MYC tag and GPI anchor signal
T9 sequence: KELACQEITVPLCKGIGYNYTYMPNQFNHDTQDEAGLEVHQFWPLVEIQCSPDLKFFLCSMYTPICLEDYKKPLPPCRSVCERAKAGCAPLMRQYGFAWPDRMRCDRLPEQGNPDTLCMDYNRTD
The assay is described as follows: flow cytometry, CHO-CRD cells.

The target of assay [10] is T10, FZD7 cysteine-rich domain (CRD), MYC-tagged and GPI-anchored on CHO cells (human, UniProt O75084 45-169). Briefly: flow cytometry, CHO-CRD cells.
Assay [11] deals with T1, FZD5 cysteine-rich domain (CRD), …. The assay is described as follows: flow cytometry on CHO-GPI cells over-expressing the Frizzled CRD.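 Further: binding of recombinant anti-Frizzled Fabs to the cells, read as fold mean fluorescence intensity above secondary-antibody-only background and normalized to control CHO-GPI cells.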
Assay [12] deals with T2, FZD9 cysteine-rich domain (CRD), …. Described as above.
The target of assay [13] is T3, FZD3 cysteine-rich domain (CRD), …. The description is as above.
The target in assay [14] is T4, FZD6 cysteine-rich domain (CRD), …. The assay is described as above.
Assay [15] addresses T5, FZD10 cysteine-rich domain (CRD), …. Described as above.
Assay [16] deals with T6, FZD4 cysteine-rich domain (CRD), …. The description is as above.
Assay [17] deals with T7, FZD2 cysteine-rich domain (CRD), …. The description is as above.
In assay [18] the target is T8, FZD1 cysteine-rich domain (CRD), …. The description is as above.
For assay [19], the target named is T9, FZD8 cysteine-rich domain (CRD), …. The description is as above.
For assay [20], the target named is T10, FZD7 cysteine-rich domain (CRD), …. The assay is described as above.
For a further assay, the target named is T11, FZD8-Fc (UniProt Q9H461 28-158, limits assumed).
T11 construct: extracellular domain; also called Frizzled-Fc chimera (FZD8); not shown: Fc part
T11 sequence (looked up): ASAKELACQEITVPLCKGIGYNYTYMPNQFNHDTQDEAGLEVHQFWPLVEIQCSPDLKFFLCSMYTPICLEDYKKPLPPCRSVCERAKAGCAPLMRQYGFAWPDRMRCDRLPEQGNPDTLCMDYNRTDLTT
The assay is described as follows: SPR, Frizzled-Fc chimera.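 Further: binding targets are Fc fusions carrying an extracellular Frizzled fragment that contains the CRD.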 In general terms: SPR reads the build-up and loss of mass on a sensor chip optically.

In a further assay the target is T12, FZD2-Fc (UniProt Q14332 24-190, limits assumed).
T12 construct: extracellular domain; also called Frizzled-Fc chimera (FZD2); not shown: Fc part
Briefly: SPR, Frizzled-Fc chimera.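 Further: binding targets are Fc fusions carrying an extracellular Frizzled fragment that contains the CRD.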

In the next assay the target is T13, FZD1-Fc (UniProt Q9UP38 73-250, limits assumed).
T13 construct: extracellular domain; also called Frizzled-Fc chimera (FZD1); not shown: Fc part
The assay is described as follows: SPR, Frizzled-Fc chimera.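 Further: binding targets are Fc fusions carrying an extracellular Frizzled fragment that contains the CRD.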

The target in assay [21] is T14, recombinant human FZD5-Fc chimera (R&D Systems, Catalog no. 1617-FZ) (human, UniProt Q13467 27-167).
T14 construct: used for selection and ELISA; Fc part of the bought chimera not given
T14 sequence: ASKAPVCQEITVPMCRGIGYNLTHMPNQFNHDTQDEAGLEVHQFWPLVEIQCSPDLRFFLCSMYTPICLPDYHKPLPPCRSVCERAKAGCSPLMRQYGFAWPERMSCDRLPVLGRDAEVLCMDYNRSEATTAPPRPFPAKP
The assay is described as follows: SPR, Frizzled-Fc chimera.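 Further: binding targets are Fc fusions carrying an extracellular Frizzled fragment that contains the CRD.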

In the next assay the target is FZD7-Fc (UniProt O75084 33-185). The assay is described as follows: SPR, Frizzled-Fc chimera.

Three molecules from patent US20210253718A1 (MODMAB THERAPEUTICS, published 2021) can be followed below.

Broadly, the Kd is the free concentration of one partner at which half of the binding sites on the other are occupied at equilibrium, for simple one-to-one binding. For orientation: koff means the first-order rate constant of dissociation. A word on the kon: it is the rate constant with which the complex forms.

T13 sequence (Q9UP38 73-250 limits assumed): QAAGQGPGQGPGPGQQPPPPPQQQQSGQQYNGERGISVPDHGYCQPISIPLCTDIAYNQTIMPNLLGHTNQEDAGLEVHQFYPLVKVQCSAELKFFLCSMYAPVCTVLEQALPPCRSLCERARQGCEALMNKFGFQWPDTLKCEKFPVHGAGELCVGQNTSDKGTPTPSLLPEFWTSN

B1: Fab-2919 (Fab, V domains shown)
VH: EVQLVESGGGLVQPGGSLRLSCAASGFNISYSYIHWVRQAPGKGLEWVASIYSSSGSTSYADSVKGRFTISADTSKNTAYLQMNSLRAEDTAVYYCARGAIDYWGQGTLVTVSS
VL: DIQMTQSPSSLSASVGDRVTITCRASQSVSSAVAWYQQKPGKAPKLLIYSASSLYSGVPSRFSGSRSGTDFTLTISSLQPEDFATYYCQQWYSSGHVLITFGQGTKVEIK
notes: Fab
B1: the median fluorescence was 43.7 in assay [1]; 2.79 in assay [2]; 3.96 in assay [3]; 2.64 in assay [4]; 2.48 in assay [5]; 3.79 in assay [6]. In addition, the median fluorescence in assay [7] was 4.26; in assay [8] it was 3.52; in [9], 20.5; in assay [10] it was 2.41. Further, the “fold-increase in mean fluorescence intensity over background (secondary antibody alone), normalized to control CHO-GPI” value in [11] was determined as 19.2 fold; in assay [19] it was 14.4 fold. In addition, the binding result in assay [12], in assay [13], in assay [14], in assay [15], in assay [16] and in [17] was “no binding (tested: 200 nM)” in each case. The binding result in [18] and in assay [20] was “no binding (tested: 200 nM)” in each case.

B2: IgG-2916 (antibody, V domains shown)
VH: EVQLVESGGGLVQPGGSLRLSCAASGFNISYSSIHWVRQAPGKGLEWVASIYPSYSYTYYADSVKGRFTISADTSKNTAYLQMNSLRAEDTAVYYCARYGYYGMDYWGQGTLVTVSS
VL: DIQMTQSPSSLSASVGDRVTITCRASQSVSSAVAWYQQKPGKAPKLLIYSASSLYSGVPSRFSGSRSGTDFTLTISSLQPEDFATYYCQQWYHYPYLITFGQGTKVEIK
With B2, the equilibrium dissociation constant (Kd) was 45.5 pM with FZD8-Fc; 905 pM in the assay with FZD2-Fc; 1240 pM with FZD1-Fc; 9.88 pM in assay [21]; 496 pM with FZD7-Fc. Also, the koff was 4.75e-05 s⁻¹ in the assay with FZD8-Fc; 0.000452 s⁻¹ with FZD2-Fc; 0.000451 s⁻¹ in the assay with FZD1-Fc; 1.3e-05 s⁻¹ in assay [21]; 0.000382 s⁻¹ with FZD7-Fc. Besides, the kon with FZD8-Fc stood at 1.04e+06 M⁻¹ s⁻¹; with FZD2-Fc, 500000 M⁻¹ s⁻¹; with FZD1-Fc, 364000 M⁻¹ s⁻¹; in [21] it was 1.32e+06 M⁻¹ s⁻¹; with FZD7-Fc it was 770000 M⁻¹ s⁻¹.

B3: Fab-2928 (Fab, V domains shown)
VH: EVQLVESGGGLVQPGGSLRLSCAASGFNISYSSIHWVRQAPGKGLEWVASIYPSYSSTYYADSVKGRFTISADTSKNTAYLQMNSLRAEDTAVYYCARYYAMDYWGQGTLVTVSS
VL: DIQMTQSPSSLSASVGDRVTITCRASQSVSSAVAWYQQKPGKAPKLLIYSASSLYSGVPSRFSGSRSGTDFTLTISSLQPEDFATYYCQQAFYYPITFGQGTKVEIK
notes: Fab; also called Fv-2928
In the case of B3, the median fluorescence in assay [1] was found to be 42.9; in assay [2], 4.49; in [3], 4.37; in [4], 3.08; in assay [5] it was 3.96; in assay [6], 5.19. Also, the median fluorescence in assay [10] turned out to be 5.94. For the same molecule, the “fold-increase in mean fluorescence intensity over background (secondary antibody alone), normalized to control CHO-GPI” value in assay [11] came out at 13 fold. Besides, the binding result in assay [12], in assay [13], in [14], in assay [15], in assay [16] and in assay [20] was “no binding (tested: 200 nM)” each time.
